Our source for the koff values is publication PMC3227653 (2011).

To fix the notation:
B1: pepsin-treated A26.8m (VHH)
VHH: QVKLEESGGGLVQAGGSLRLSCAASERTFSRYPVAWFRQAPGAEREFVCVISSTGTSTYYADSVKGRFTCSRDNAKVTVYLQMNNLKREDTAVYFCAVNSQRTRLQDPNEYDYWGQGTQVTVSS
B2: pepsin-treated A5.1m (VHH)
VHH: QVKLEESGGGLVQAGGSLRLSCAASGRTFSMYRMGWFRQAPGKEREFVCVITRNGSSTYYADSVKGRFTCSRDNAKNTVYLQMNSLKPEDTALYYCAATSGSSYLDAAHVYDYWGQGTQVTVSS
B3: pepsin-treated A4.2m (VHH)
VHH: QVKLEESGGGLVQAGGSLRLSCAASGRTFNTLSMGWFRQAPGKEREFVCAVSRSGGSTYYADSVKGRFTCSRDNAKNTVYLQMNSLKPEDTAVYYCAAAATKSNTTAYRLSFDYWGQGTQVTVSS

The assay concerns the target Clostridium difficile toxin A (C. difficile, UniProt P16154 1-2710). Put plainly: SPR.
With B1, the koff (as a rule, the first-order rate constant of dissociation) turned out to be 0.019 s⁻¹.
For the molecule B2, the koff was 0.013 s⁻¹.
On to B3, for which the koff came to 0.016 s⁻¹.
